The Kd is a measure of binding affinity in units of concentration.

For 2 molecules, dH and Kd results are on record in publication PMC8151781, “Ca^2+ Regulates ERp57-Calnexin Complex Formation” (Molecules, 2021).

The chains are these.
B1: human ERp57 (residues 25-505) (enzyme, UniProt P30101 25-505, looked up)
chain: SDVLELTDDNFESRISDTGSAGLMLVEFFAPWCGHCKRLAPEYEAAATRLKGIVPLAKVDCTANTNTCNKYGVSGYPTLKIFRDGEEAGAYDGPRTADGIVSHLKKQAGPASVPLRTEEEFKKFISDKDASIVGFFDDSFSEAHSEFLKAASNLRDNYRFAHTNVESLVNEYDDNGEGIILFRPSHLTNKFEDKTVAYTEQKMTSGKIKKFIQENIFGICPHMTEDNKDLIQGKDLLIAYYDVDYEKNAKGSNYWRNRVMMVAKKFLDAGHKLNFAVASRKTFSHELSDFGLESTAGEIPVVAIRTAKGEKFVMQEEFSRDGKALERFLQDYFDGNLKRYLKSEPIPESNDGPVKVVVAENFDEIVNNENKDVLIEFYAPWCGHCKNLEPKYKELGEKLSKDPNIVIAKMDATANDVPSPYEVRGFPTIYFSPANKKLNPKKYEGGRELSDFISYLQREATNPPVIQEEKPKKKKKAQEDL
notes: ERp57 (protein disulfide isomerase family member), human, residues 25-505; Cloned into the NdeI and BamHI sites of pET15b; also called wild-type ERp57
B2: luminal domain of human calnexin (residues 21-481) (domain or fragment, UniProt P27824 21-481, looked up)
chain: HDGHDDDVIDIEDDLDDVIEEVEDSKPDTTAPPSSPKVTYKAPVPTGEVYFADSFDRGTLSGWILSKAKKDDTDDEIAKYDGKWEVEEMKESKLPGDKGLVLMSRAKHHAISAKLNKPFLFDTKPLIVQYEVNFQNGIECGGAYVKLLSKTPELNLDQFHDKTPYTIMFGPDKCGEDYKLHFIFRHKNPKTGIYEEKHAKRPDADLKTYFTDKKTHLYTLILNPDNSFEILVDQSVVNSGNLLNDMTPPVNPSREIEDPEDRKPEDWDERPKIPDPEAVKPDDWDEDAPAKIPDEEATKPEGWLDDEPEYVPDPDAEKPEDWDEDMDGEWEAPQIANPRCESAPGCGVWQRPVIDNPNYKGKWKPPMIDNPSYQGIWKPRKIPNPDFFEDLEPFRMTPFSAIGLELWSMTSDIFFDNFIICADRRIVDDWANDGWGLKKAADGAAEPGVVGQMIEAAEERP
notes: calnexin (CNX), human, luminal domain, residues 21-481; pET15b construct; the N-terminal His tag was removed from the plasmid and a His tag added at the C-terminus; also called CNX; ER-luminal domain of CNX

Holding throughout (details): both partners purified
Assay [1] deals with B2. Put plainly: ITC; ERp57 (370 μM) in the syringe titrated into CNX (25 μM) in the cell; 20 mM HEPES pH 7.2, 100 mM NaCl, without Ca2+, 15 °C; one-set-of-sites model. In general terms: In ITC the heat of successive injections is recorded.
In assay [2] the target is B2. Put plainly: ITC; ERp57 (370 μM) in the syringe titrated into CNX (25 μM) in the cell; 20 mM HEPES pH 7.2, 100 mM NaCl, with 1 mM CaCl2, 15 °C; one-set-of-sites model.
Assay [3] concerns the target B1. Description: ITC; ERp57 (370 μM) in the syringe titrated into CNX (25 μM) in the cell; 20 mM HEPES pH 7.2, 100 mM NaCl, without Ca2+, 15 °C; one-set-of-sites model.
Assay [4] deals with B1. Put plainly: ITC; ERp57 (370 μM) in the syringe titrated into CNX (25 μM) in the cell; 20 mM HEPES pH 7.2, 100 mM NaCl, with 1 mM CaCl2, 15 °C; one-set-of-sites model.

Consider B1, for which the dH in assay [1] was -3.31 kcal/mol; in assay [2], -3.81 kcal/mol.

For B2, the dissociation constant Kd turned out to be 880 nM in assay [3] and 1520 nM in assay [4].
